Experiment [1] deals with HM1.24 antigen protein (human). The experiment can be described thus: FCM, indirect method, 25 ug/ml antibody; MT-1 cells (T cell line).
In experiment [2] the target is HM1.24 antigen protein (human). Put plainly: FCM, indirect method, 25 ug/ml antibody; HPB-ALL cells (T cell line).
Experiment [3] concerns the target HM1.24 antigen protein (human). The experiment can be described thus: FCM, indirect method, 25 ug/ml antibody; KT-3 cells (T cell line).
The target of experiment [4] is HM1.24 antigen protein (human). The experiment can be described thus: FCM, indirect method, 25 ug/ml antibody; RPMI 8402 cells (T cell line).
Experiment [5] concerns the target HM1.24 antigen protein (human). The experiment can be described thus: FCM, indirect method, 25 ug/ml antibody; CCRF-HSB-2 cells (T cell line).
Experiment [6] addresses HM1.24 antigen protein (human). The experiment can be described thus: FCM, indirect method, 25 ug/ml antibody; MOLT-4 cells (T cell line).
Experiment [7] has as its target HM1.24 antigen protein (human). The experiment can be described thus: FCM, indirect method, 25 ug/ml antibody; RPMI 6410 cells (B cell line).
Experiment [8] addresses HM1.24 antigen protein (human). The experiment can be described thus: FCM, indirect method, 25 ug/ml antibody; CESS cells (B cell line).
For experiment [9], the target named is HM1.24 antigen protein (human). The experiment can be described thus: FCM, indirect method, 25 ug/ml antibody; Jijoye cells (B cell line).
In experiment [10] the target is HM1.24 antigen protein (human). The experiment can be described thus: FCM, indirect method, 25 ug/ml antibody; HPB-MLT cells (T cell line).
In experiment [11] the target is HM1.24 antigen protein (human). Put plainly: FCM, indirect method, 25 ug/ml antibody; Jurkat cells (T cell line).
In experiment [12] the target is HM1.24 antigen protein (human). The experiment can be described thus: FCM, indirect method, 25 ug/ml antibody; CCRF-CEM cells (T cell line).
The target in experiment [13] is HM1.24 antigen protein (human). Put plainly: FCM, indirect method, 25 ug/ml antibody; CCRF-SB cells (B cell line).
The target in experiment [14] is HM1.24 antigen protein (human). The experiment can be described thus: FCM, indirect method, 25 ug/ml antibody; EB-3 cells (B cell line).
Experiment [15] concerns the target HM1.24 antigen protein (human). Put plainly: FCM, indirect method, 25 ug/ml antibody; SKW 6.4 cells (B cell line).
The target of experiment [16] is HM1.24 antigen protein (human). The experiment can be described thus: FCM, indirect method, 25 ug/ml antibody; JM cells (T cell line).
The target of experiment [17] is HM1.24 antigen protein (human). Put plainly: FCM, indirect method, 25 ug/ml antibody; MC116 cells (B cell line).

The source of these data is patent US20020037288A1.

Consider mouse anti-HM1.24 monoclonal antibody, for which the percentage of HM1.24 antigen-positive cells (Expression rate) in experiment [1] came out at 95.9%; in experiment [2], 63.8%; in experiment [3], 96%; in experiment [4], 94%; in experiment [5] it was 100%; in experiment [6], 84.1%. Besides, the percentage of HM1.24 antigen-positive cells (Expression rate) in experiment [7] amounted to 94.5%; in experiment [8] it was 94.5%; in [9], 92.3%; in experiment [10] it was 94.6%; in [11], 70.9%; in experiment [12], 97.8%. For the same substance, the percentage of HM1.24 antigen-positive cells (Expression rate) amounted to 98.4% in experiment [13]; 88.3% in [14]; 92.8% in [15]; 99.6% in experiment [16]; 65% in experiment [17].
